Measurements reported in patent publication US20130109581A1, “POSITIVELY CHARGED SPECIES AS BINDING REAGENTS IN THE SEPARATION OF PROTEIN AGGREGATES FROM MONOMERS” (priority 2009, published 2013).
Several values for one entry are separate records, joined by “and”; a condition that tells them apart may be missing. Equal values may be shown once.

What was measured:
[1] = molecular target: T1, oligomeric beta amyloid 1-42 (globulomer) (Homo sapiens, UniProt P05067); experiment: Misfolded Protein Assay: capture of globulomer spiked into CSF (Example 2); type: binding; settings: globulomer-spiked CSF vs normal CSF; reagent on Dynal M270 beads
T1 construct: beta amyloid (1-42) was monomerized with incubation in hexafluoroisopropanol
Description: To assess the ability of these reagents to capture protein aggregates, the previously described Misfolded Protein Assay or MPA (Lau et al., 2007, PNAS, 104: 11551) was used (FIG. 3). In this assay, the capture reagent of interest is attached to beads which are incubated with a sample of interest containing a mixture of normal monomeric and aggregated proteins to allow for capture and then washed to remove unbound material. After this enrichment step, an elution buffer is used to dissociate the captured material from the beads as well as to denature any aggregates. The eluted material is then applied to a sandwich ELISA that is specific for the protein of interest. Strong aggregate-binding reagents acting as effective capture reagents show a high signal from the sample containing a mixture of monomers and aggregates, but not from the control sample, which contains only physiologic levels of monomeric protein.
Beads displaying carboxylic acids were treated with EDC and BMPH to create maleimide-displaying beads, to which thiolated peptides (or other thiolated organic molecules) were added through a Michael addition reaction. Dynal M270 magnetized beads (30 mg/mL bead) displaying carboxylic acids were vortexed and placed into a 15 ml falcon tube. The tube was placed into a magnet, and the supernatant removed. The beads were washed 2 times with 0.1 M MES buffer, pH 5, and then the washing buffer was removed. The coupling solution (33 mM BMPH, 130 mM EDC in MES buffer) was added, and the tube was rocked for 30 minutes at room temperature. After washing in 1×MES, 1× Tris, pH 7.5, the beads were quenched with Tris buffer (50 mM Tris buffer, pH 7.5) for 15 minutes. The beads were then washed 2 times in phosphate buffer and added to 5 mM thiolated ligand in degassed phosphate. The beads were rotated for 21 hours, then washed in 0.1 M phosphate buffer, pH 7, 1×PBS, and stored.
To prepare the globulomer, beta amyloid (1-42) was monomerized with incubation in hexafluoroisopropanol. The hexafluoroisopropanol was removed by vacuum centrifugation. DMSO, PBS, and 2% SDS were then added to the sample. The sample was vortexed and sonicated and then incubated at 37° C. After 6 hours, the sample was diluted with water, vortexed, and incubated at 37° C. for an additional 19 hours. The sample was ultracentrifuged at 135000×g for 1 hour at 4° C., and the supernatant retained. The globulomers were spiked into CSF for the assay.
Aliquots of beads conjugated to various reagents were added to wells of a 96-well plate. Globulomer-spiked CSF in a Tris buffer was added to each well, and the plates were incubated for 1 hour at 37° C. with shaking. For the negative control, normal CSF was used, which is considered to contain only monomers of beta amyloid. The beads were washed with TBST wash buffer, and bound materials were eluted with a denaturing solution (typically 0.1-0.15 N NaOH). A reconditioning buffer was added to the eluate prior to beta amyloid detection via a beta amyloid (1-42) specific sandwich ELISA.
In order to determine the amount of ligand loading, amine quanitation was used. Aliquots of beads were placed in a magnet, and the supernatant removed. 80% phenol in ethanol, 0.2 mM KCN in pyridine/water, and 6% ninhydrin in ethanol was added to each tube. The aliquots were vortexed and heated for 7 minutes at 100° C. After cooling to room temperature, 60% ethanol was added. The tubes were placed in a magnet, and the absorbance of the supernatant at 570 nm was determined. The loading of the beads was determined according to Beer's law, using the extinction coefficient of 15000 M-1 cm-1.
Beads (3 ul or 15 ul) were added to samples containing 0.5 ng/mL globulomer spiked into CSF. […] For PSR1, this limit was ˜5 nmol ligand/mg bead for binding preferentially to globulomer. […]

[2] = molecular target: Abeta 42 globulomer (Homo sapiens, UniProt P05067); experiment: NMPA with detergent washing after PSR1 pulldown: globulomer detection; type: binding
[3] = molecular target: T2, Aβ40 aggregates in AD CSF (Homo sapiens, UniProt P05067); experiment: Discrimination between AD and normal CSF; type: binding; settings: AD CSF; detergent wash; data not shown
T2 construct: from tissue; host or cells: pooled cerebrospinal fluid (normal or AD)
Description: The Ab42 aggregates were prepared as previously described: fibrils were prepared per Stine et al (JBC 2003, 278, p11612), globulomers were prepared per Barghorn et al (J Neurology 2005 95 p834), ADDLs were prepared per Lambert et al (PNAS 1998, 95 p6448), and ASPDs were prepared per Noguchi et al (JBC 2009 284 p32895). Normal CSF was pooled from clinically characterized non-demented patient CSF samples. AD CSF was pooled from clinically-characterized AD patient samples. Alzheimer's Disease Brain Homogenate (ADBH) was prepared by sonication of clinically diagnosed AD patient brain samples in 0.2M.sucrose (1:10 w/v).
For the capture assay (Misfolded Protein Assay), aliquots of the beads (30 ul) were added to wells of a 96 well plate, followed by 125 ul of sample in 80:20 CSF:TBSTT. The plate was sealed and incubated for 1 h at 37 C with shaking. The plate was washed with TBST and the residual buffer removed. A denaturing solution (0.1 N NaOH) was added to each well and the plate heated to 80 C. for 30 min with shaking. After cooling the plate to RT, a neutralizing buffer (0.12 M NaH2PO3-0.4% TW20,) was added and the plate shaken briefly at RT. The assay was analyzed using the triplex Mesoscale Discovery ELISA kit for Aβ. The Aβ in the samples eluted from the beads were detected per the manufacturer's protocol.
For discriminating between AD and normal CSF, pooled normal CSF or pooled Alzheimer's Disease patient CSF, were assayed per the protocol described above.

[4] = molecular target: T3, normal CSF Aβ42 (Homo sapiens, UniProt P05067); experiment: NMPA with detergent washing: background from unspiked CSF, Abeta42; type: binding; settings: CSF; PSR1 beads treated with detergent post capture
T3 construct: reduced the detection of normal CSF Aβ42 to the background levels; from tissue; host or cells: pooled normal cerebrospinal fluid
Description: Second, two neutral detergents, polyethylene glycol sorbitan monolaurate (available as TWEEN 20 from Sigma-Aldrich, St. Louis, Mo.) and n-tetradecyl-N,N-dimethyl-3-ammonio-1-propanesulfonate (available as ZWITTERGENT 3-14 from EMI) Chemicals, Gibbstown, N.J.) were used to treat the globulomer-spiked CSF samples that had been contacted with PSR1 beads. For each assay, a mixture of 30 μl of PSR1 beads (coated at about 7-12 nmol PSR1 ligand/mg DYNAL beads, which were used in this example and in the following examples unless otherwise stated) and 70 μl of 1×TBSTT was immediately pipetted into each well on the pulldown plate. The liquid was removed on a magnetic separator. Fifty micro liters of 5×TBSTT was added to each well. The beads were suspended by briefly shaking at 750 rpm. Next […] of TBSTT or CSF sample without globulomer was added to each well. The pulldown plate was sealed and incubated at 37° C. for 1 hour with shaking at 500 rpm. After incubation, the beads were washed 8 times with TBST on the plate washer. After the plate wash, residual TBST buffer was removed from the beads on the magnetic separator. The beads were then incubated with 100 μl of either TBS, 1% Tween20 or 1% Zwittergent 3-14 for 30 minutes at room temperature at 750 rpm, (followed by an additional 8 washes with TBST on the plate washer. After removing residual TBST on the magnetic separator, 20 μl of denaturing solution, typically 0.1-0.15 N NaOH, was added to the beads. The plate was covered with an aluminum foil plate sealer and incubated at 80° C. for 30 minutes with shaking at 750 rpm. After incubation, the plate was cooled to room temperature and twenty micro liters of neutralizing solution, typically 0.12-0.18 M NaH2PO4+0.4% Tween20) was added into each well and the plate was incubated at room temperature for 5 minutes with shaking at 750 rpm. […] MSD Abeta Triplex Assay was preformed according to the manufacturer's instructions.
A summary of the assay results and calculated signal/noise is shown below in Table 17.

[5] = molecular target: T4, Abeta 1-42 globulomer (Homo sapiens, UniProt P05067); experiment: Globulomer capture assay in CSF (Example 6); type: binding; settings: 4 ng/mL globulomer spiked; FIG. 29
T4 construct: beta amyloid (1-42) was monomerized with incubation in hexafluoroisopropanol

[6] = molecular target: T4, Abeta 1-42 globulomer; experiment: Globulomer capture assay in CSF (Example 6); type: binding
Description: (§1) A series of new potential aggregate-specific binding reagents were designed as shown below and conjugated onto magnetic Dynal M270 beads as described in Example 2. Typically 7-12 nmol of ligand (each candidate aggregate-specific binding reagent) was coated onto 1 mg of beads.
(§2) Aliquots of the beads (typically 3 ul) were added to wells of a 96 well plate, followed by sample (with or without Abeta 1-42 globulomer (an Abeta42 oligomer model) spiked in 80:20 CSF:TBSTT, typically 125 ul). The plate was sealed and incubated for 1 hour at 37° C. with shaking. The plate was washed with aqueous solutions of detergent (typically polyethylene glycol sorbitan monolaurate and n-tetradecyl-N,N-dimethyl-3-ammonio-1-propanesulfonate) to remove ubound material and the residual buffer removed. A denaturing solution (typically 0.1-0.15 N NaOH) was added to each well and the plate heated to 80° C. for 30 min with shaking. After cooling the plate to room temperature, a neutralizing buffer (typically 0.12-0.18 M NaH2PO3 in 0.4% TWEEN20,) was added and the plate was shaken briefly at room temperature. The bead eluate was analyzed using either an Aβ42-specific ELISA or the MSD® 96-Well MULTI-SPOT® Human/Rodent [4G8] Abeta Triplex Ultra-Sensitive Assay from Meso Scale Discovery (Gaithersburg, Md.). For the Aβ42-specific assay, the samples were eluted from the beads and a detection antibody (4G8 HRP) was added to a plate bearing the Aβ42-specific antibody 12F4. The plate was incubated for 1 hour, washed, the substrate was added (SuperSignal West Femto Maximum Sensitivity Substrate from Thermo Fisher, Rockville, Md.), and the luminescence was measured. The MSD plate assay was performed in a similar fashion, according to the manufacturer's protocol.
(§3) In this experiment the preferred number of charges within a given scaffold was identified. An Ala/Lys peptide framework was utilized, where the inclusion of each Lys residue increases the peptides' net charge by +1. Six hexapeptides with increasing charge (+1→+6), AAAKAA, AAKKAA, AAKKKA, AKKKKA, AKKKKK, and KKKKKK, were prepared and conjugated on the beads. The ability of these beads to capture Abeta 1-42 globulomer spiked at 1 ng/mL into CSF was tested, and the result is shown in FIG. 25. The globulomer capture level (“42 1 ng/ml” or the closed bars) was compared to the background signal of Abeta 1-42 detected in the unspiked CSF (“42 0 ng/ml”) and the background signal of Abeta 1-40 detected in unspiked CSF (“40 0 ng/ml”) or CSF spiked with AB42 oligomers “40 1 ng/ml”. The charge density, as conjugated to the magnetic beads, of each reagent evaluated in this experiment is shown below in Table 8.

[7] = tested on: tau aggregates; type: binding, human
[8] = molecular target: T5, Aβ(1-42) aggregates (Homo sapiens, UniProt P05067); type: binding
T5 construct: For Aβ(1-42), 10 nL of 10% brain homogenate was added to each well; from tissue; host or cells: Alzheimer's disease patient brain homogenate

[9] = molecular target: PrP^Sc (Mesocricetus auratus, UniProt P04273)
[10] = molecular target: T6, Abeta 1-40 monomer (Homo sapiens, UniProt P05067); experiment: Globulomer capture assay in CSF (Example 6): Abeta 1-40 noise; type: binding; settings: Abeta 1-40 signal (noise), CSF samples
T6 construct: Abeta 1-40 monomer capture level; from tissue; host or cells: cerebrospinal fluid (matrix of the assay)
Description: as §1, §2, §3

PrP^Sc, sequence (P04273 23-231 limits assumed): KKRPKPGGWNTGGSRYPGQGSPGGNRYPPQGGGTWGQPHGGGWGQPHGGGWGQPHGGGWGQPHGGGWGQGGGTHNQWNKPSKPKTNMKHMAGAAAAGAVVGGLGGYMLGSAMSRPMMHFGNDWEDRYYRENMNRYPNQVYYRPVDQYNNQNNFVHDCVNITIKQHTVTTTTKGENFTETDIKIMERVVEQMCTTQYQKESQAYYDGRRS

DDDDDD
capture of oligomers (relative light units from the Abeta ELISA) [1]: little enrichment of the oligomeric species

n-Hexadecyl-N,N-dimethyl-3-ammonio-1-propanesulfonate [ZW3-16]
signal/noise of globulomer detection [2]: improved the signal/noise ratio for Abeta 42 globulomer detection more significantly
S/N Abeta 42 globulomer-spiked/unspiked ([2]; 0.5 ng/mL vs 0 ng/mL globulomer): 10.9
S/N Abeta 42 globulomer-spiked/Abeta 40 ([2]; Abeta 42 RLU at 0.5 ng/mL over average Abeta 40 RLU): 3.7
Abeta 42 RLU, 0.5 ng/mL Abeta 42 globulomer, Average ([2]; CSF, PSR1 beads treated with detergent post capture): 730.7 RLU
Abeta 40 aggregates capture S/N [3]: improved Abeta 40 aggregates capture S/N even more significantly in AD CSF
Abeta 42 RLU, 0 ng/mL Abeta 42 globulomer, Average [4]: 67.0 RLU

AKFKKK
globulomer capture [5]: improved globulomer capture relative to nonaromatic residues

FKFKKK
globulomer capture ([6]; Abeta42 globulomer spiked into CSF, reagents on beads): captured globulomers specifically
globulomer capture [5]: improved globulomer capture relative to nonaromatic residues

Nab-Nab-Nab-Nab-Nab-Nab-Nab [+++++++]
total Tau signal, AD vs normal brain homogenate [7]: higher signals in the AD samples relative to the normal brain homogenates
limit of detection for Aβ(1-42) capture [8]: 1.6 mL/assay and 2.5 mL/assay

HHHHHH
capture of oligomers (relative light units from the Abeta ELISA) [1]: little enrichment of the oligomeric species

Nab-Nab-Nab-Nab-Nab-Nab [++++++]
PrP^Sc capture signal [9]: Signal was observed with the 100 or 300 ng/mL spike levels

KKKWKW
capture of oligomers (relative light units from the Abeta ELISA) [1]: increased capture efficiency relative to the corresponding peptides with aliphatic hydrophobic residues or no hydrophobic residues

KKKKKK
42:40 (signal:noise ratio) ([6]; 1 ng/ml average reading, ratio of 42 to 40): 3.3
42, 1 ng/ml average reading ([6]; Abeta 1-42 globulomer spiked at 1 ng/mL into CSF): 658 RLUs
40, 1 ng/ml average reading [10]: 197 RLUs
capture of oligomers (relative light units from the Abeta ELISA) [1]: significant capture
